# T1: PLN peptide V (biotin-HPDP-Cys-EKVQYLTRSAIRRASTIEMPQQARQ-NH2) (biotin-HPDP on the N-terminal Cys (cysteine persulphide); C-terminal amidation)
# T1 peptide: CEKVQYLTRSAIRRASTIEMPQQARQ
# T2: pS16 PLN peptide VI (biotin-HPDP-Cys-EKVQYLTRSAIRRApSTIEMPQQARQ-NH2) (phosphoserine at Ser 16 (pS in the printed sequence); biotin-HPDP on the N-terminal Cys (cysteine persulphide); C-terminal amidation)
# T2 peptide: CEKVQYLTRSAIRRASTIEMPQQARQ
# T3: PLN peptide V (biotin-HPDP-Cys-EKVQYLTRSAIRRASTIEMPQQARQ-NH2) (biotin-HPDP on the N-terminal Cys (cysteine persulphide); C-terminal amidation)
# T3 construct: added N-terminal cysteine residue that carries biotin-HPDP; phospholamban (PLN), stretch of the cytoplasmic regulatory domain; also called non-phosphorylated PLN peptide; source: synthetic peptide (Bachem, Switzerland)
# T3 peptide: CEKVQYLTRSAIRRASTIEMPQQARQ
# T4: pS16 PLN peptide VI (biotin-HPDP-Cys-EKVQYLTRSAIRRApSTIEMPQQARQ-NH2) (phosphoserine at Ser 16 (pS in the printed sequence); biotin-HPDP on the N-terminal Cys (cysteine persulphide); C-terminal amidation)
# T4 construct: added N-terminal cysteine residue that carries biotin-HPDP; phospholamban (PLN), stretch of the cytoplasmic regulatory domain, phosphorylated at Ser 16; also called p16S PLN peptide; source: synthetic peptide (Bachem, Switzerland)
# T4 peptide: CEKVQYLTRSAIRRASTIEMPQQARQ
# How the values were obtained:
# [1] = molecular target: T1, PLN peptide V …; assay: SPR
# [2] = molecular target: T2, pS16 PLN peptide VI …; assay: SPR; pS16 phosphorylated
# [3] = molecular target: T2, pS16 PLN peptide VI …; assay: SPR; pS16 phosphorylated; kinetic fit
# [4] = molecular target: T3, PLN peptide V …; assay: SPR; Biacore T200; peptide V or VI immobilised on streptavidin SA chip (50-100 RU); VHH as analyte, single-cycle kinetics with five increasing concentrations; PBS pH 7.4 + 0.05% Tween 20; 1:1 Langmuir model; conditions: both partners purified
# [5] = molecular target: T4, pS16 PLN peptide VI …; assay: as above; conditions: both partners purified
# [6] = molecular target: pS16 PLN peptide VI (biotin-HPDP-Cys-…p…-NH2); assay: as above
# [7] = molecular target: T1, PLN peptide V …; assay: SPR
# [8] = molecular target: T3, PLN peptide V …; assay: SPR; Biacore T200; peptide V or VI immobilised on streptavidin SA chip (50-100 RU); VHH2 as analyte, single-cycle kinetics; PBS pH 7.4 + 0.05% Tween 20; bivalent analyte model; apparent Kd; conditions: both partners purified
# [9] = molecular target: T4, pS16 PLN peptide VI …; assay: as above; conditions: both partners purified
Binder,koff [1] [s⁻¹],koff [2] [s⁻¹],Kd [3] [nM],Kd [4] [nM],Kd [5] [nM],Kd [6] [nM],Kd [7] [nM],Kd [8] [nM],Kd [9] [nM]
"VHH B4 (VHH, VHH B4, from the synthetic LlamdA phage-display VHH library (llama VHH framework); also called clone B4; source: E. coli HB2151, small-scale cultures induced with IPTG (ELISA); expressed and purified according to previously described protocols (SPR)) VHH: EVQLQESGGGLVQAGGSLRLSCAASGFSFYRHAMGWFRQAPGKEREWVAEIDWEGGYTYYADSVKGRFTISRDNAKNTVYLQMNSLKPEDTAVYYCAAGRDLYAYWGQGTQVTVSS",0.025,0.18,618,44,682,–,–,–,–
VHH C6 (VHH) VHH: EVQLQESGGGLVQAGGSLRLSCAASGFTLYAMGWFRQAPGKEREFVAAITPHGSTTYYADSVKGRFTISRDNAKNTVYLQMNSLKPEDTAVYYCHTYYSGSWGQGTQVTVSS,–,0.33,–,–,–,680,–,–,–
"VHH2 B4B4 (VHH, N-terminal VHH B4 domain; (Gly3Ser)3 linker, as named in the methods and encoded by the printed primers; C-terminal VHH B4 domain; Bivalent VHH on one chain; also called bivalent variant of VHH B4; bivalent VHH2 B4B4; source: E. coli HB2151 (pHEN4 vector); expressed and purified according to previously described protocols) EVQLQESGGGLVQAGGSLRLSCAASGFSFYRHAMGWFRQAPGKEREWVAEIDWEGGYTYYADSVKGRFTISRDNAKNTVYLQMNSLKPEDTAVYYCAAGRDLYAYWGQGTQVTVSSGGGSGGGSGGGSEVQLQESGGGLVQAGGSLRLSCAASGFSFYRHAMGWFRQAPGKEREWVAEIDWEGGYTYYADSVKGRFTISRDNAKNTVYLQMNSLKPEDTAVYYCAAGRDLYAYWGQGTQVTVSS",0.00011,0.0052,–,–,–,–,0.1,0.15,1

# — paper PMC9156741, “Blocking phospholamban with VHH intrabodies enhances contractility and relaxation in heart failure” (Nature Communications, 2022)
